Values quoted from earlier work as cited in patent US7696205B2, “Cyclic derivatives as modulators of chemokine receptor activity” (Bristol-Myers Squibb Company, priority 2003, dated 2010).

Test system: MCP-1 expression in peripheral blood mononuclear cells
Conditions: effective therapy in human multiple sclerosis

B1: interferon b-1b: effective therapy in human multiple sclerosis (protein, UniProt P01574 22-187, looked up, variant C17S)
Interferon beta: MSYNLLGFLQRSSNFQSQKLLWQLNGRLEYCLKDRMNFDIPEEIKQLQQFQKEDAALTIYEMLQNIFAIFRQDSSSTGWNETIVENLLANVYHQINHLKTVLEEKLEKEDFTRGKLMSSLHLKRYYGRILHYLKAKEYSHCAWTIVRVEILRNFYFINRLTGYLRN
Q: With B1 as the molecule, how does the “effect on MCP-1 expression in peripheral blood mononuclear cells” value read?
A: reduces MCP-1 expression
